Key:
[1] = tested on: MDA-MB231 breast cancer cells; assay: short-term cell number WST assay / XTT proliferation assay of small peptides; type: cell-based, human; settings: 300 ng/ml
From the text: FIG. 6 presents diagrams showing the tumor suppressive impact of small peptides derived from ITIH5 on aggressive MDA-MB231 breast cancer cells. Growth inhibition mediated by chemically synthesized ITIH5-derived peptides using a short-term cell number WST assay.
These small protein fragments can be further optimized (stabilization, modification) to obtain suitable candidates for novel anti-tumor drugs. Use of biological drugs in targeted cancer therapy is a strongly growing area in cancer care.

[2] = tested on: SK-MES1 lung cancer cells; assay: XTT proliferation assay; type: cell-based, human; settings: dose-dependent
Experimental: (§1) Various functional readout systems were available to determine the tumor suppressive impact of 1-681_ITIH5 treatment in vitro: A) Cell number assay: Numbers of living cells were quantified after four days of culturing using the CASY cell counter and analyzer (Roche Diagnostics, Mannheim, Germany). B) XTT proliferation assay: the cell proliferation KIT (XTT) was used according to the manufacturer's recommendations (Roche). C) Colony formation assay: 1×10^3 cells were seeded into six-well plates. After 14 days of culturing grown colonies were fixed with 3.5% formaldehyde/80% methanol and stained with 0.1% crystal violet. D) Wound healing assay: a confluent monolayer was scratched with a pipette tip. Afterwards cell migration within the wounded area was analyzed by using a light microscope over three days.

[3] = tested on: MDA-MB231 endogenously ITIH5 positive cells; assay: colony formation assay in ITIH5-expressing single cell clones; type: cell-based, human; settings: MDA-MB231 clones stably expressing ITIH5
Experimental: as §1
(§2) In order to ensure specificity of observed effects of 1-681_ITIH5, a LDH Cytotoxicity Detection assay (Roche) was performed according to the manufacturer's recommendations. Furthermore MDA-MB231 single cell clones were generated which stably express ITIH5 protein under a strong CMV promoter. These endogenous ITIH5-positive clones are optimal control cells, i.e. those ITIH5-positive cells should not show further sensitivity against 1-681_ITIH5 in growth inhibitory experiments.

[4] = tested on: MDA-MB231 breast cancer cells; assay: LDH Cytotoxicity Detection assay; type: cell-based, human; settings: after 72 h vs controls
Experimental: as §2
Highly purified peptides were used for functional in vitro validation. Various functional readout systems were available to determine the tumor suppressive impact of ITIH5 protein subfragments in vitro: A) Cell number assay: Numbers of living cells were quantified after four days of culturing using the CASY cell counter and analyzer (Roche Diagnostics, Mannheim, Germany). B) Colony formation assay: 1×10^3 cells were seeded into six-well plates. After 14 days of culturing grown colonies were fixed with 3.5% formaldehyde/80% methanol and stained with 0.1% crystal violet. C) In order to ensure specificity of observed effects of the ITIH5 subfragments a LDH Cytotoxicity Detection Kit (Roche) was performed according to the manufacturer's recommendations. […] Afterwards cell migration within the wounded area was analyzed by using a light microscope over three days.

[5] = tested on: MDA-MB231 breast cancer cells; assay: short-term cell number assay (CASY cell counter); type: cell-based, human; settings: for inhibition of tumor cell growth: dose dependent, maximal effect
Experimental: as §1
(§3) Highly purified peptides were used for functional in vitro validation. Various functional readout systems were available to determine the tumor suppressive impact of ITIH5 protein subfragments in vitro: A) Cell number assay: Numbers of living cells were quantified after four days of culturing using the CASY cell counter and analyzer (Roche Diagnostics, Mannheim, Germany). B) Colony formation assay: 1×10^3 cells were seeded into six-well plates. After 14 days of culturing grown colonies were fixed with 3.5% formaldehyde/80% methanol and stained with 0.1% crystal violet. C) In order to ensure specificity of observed effects of the ITIH5 subfragments a LDH Cytotoxicity Detection Kit (Roche) was performed according to the manufacturer's recommendations. D) Wound healing assay: a confluent monolayer was scratched with a pipette tip. Afterwards cell migration within the wounded area was analyzed by using a light microscope over three days.

[6] = tested on: MDA-MB231 breast cancer cells; assay: scratch wound healing assay (cell migration); type: cell-based, human; settings: over 3 days
Experimental: as §1
Highly purified peptides were used for functional in vitro validation. Various functional readout systems were available to determine the tumor suppressive impact of ITIH5 protein subfragments in vitro: A) Cell number assay: Numbers of living cells were quantified after four days of culturing using the CASY cell counter and analyzer (Roche Diagnostics, Mannheim, Germany). B) Colony formation assay: 1×10^3 cells were seeded into six-well plates. […] Afterwards cell migration within the wounded area was analyzed by using a light microscope over three days.

[7] = stability in supernatant of treated cancer cells (western blot); type: in vitro ADME; settings: 1 μg/ml added to supernatant of MDA-MB231 cells; western blotting
Experimental: FIG. 2 is a diagram showing the performance of the recombinant 1-681_ITIH5 in vitro. A) Persisting stability of 1-681_ITIH5 over 48 h in vitro. 1 μg/ml of 1-681_ITIH5 was added to the supernatant of MDA-MB231 breast cancer cells. To the given time points 1 ml of the supernatant was harvested and non-degraded 1-681_ITIH5 was isolated and analyzed by western blotting (as shown). B) LDH cytotoxicity assay.
Before applying 1-681_ITIH5 in vitro both the stability and the purity were tested by using a western blot analysis.

[8] = tested on: T47D breast cancer cell line; assay: colony formation assay; type: cell-based, human
Experimental: as §1

[9] = tested on: BT20 breast cancer cell line; assay: colony formation assay; type: cell-based, human
Experimental: as §1

[10] = tested on: MDA-MB231 breast cancer cells; assay: long-term colony formation assay; type: cell-based, human; settings: p<0.001
Experimental: as §1

[11] = tested on: A549 lung cancer cells; assay: LDH Cytotoxicity Detection assay; type: cell-based, human; settings: after 72 h vs controls
Experimental: as §3

[12] = tested on: A549 lung cancer cells; assay: short-term cell number assay (CASY cell counter); type: cell-based, human; settings: dose dependent, maximal effect
Experimental: as §3

## #26: chemically synthesized peptide derived from the ITIH5 VIT-domain (SVKSTIISRYAFTTVSCRML; isolated peptide)
[1]
  cancer cell growth, single peptides: significant impairment of cancer cell growth

## #32: chemically synthesized peptide derived from the ITIH5 VIT-domain (MLNRASEDQDIEFQMQIPAA; isolated peptide)
[1]
  cancer cell growth, single peptides: significant impairment of cancer cell growth

## #98: chemically synthesized peptide derived from the ITIH5 vWA domain (GDIQVLNGYFVHYFAPKDLP; isolated peptide)
[1]
  cancer cell growth, single peptides: significant impairment of cancer cell growth

## #102: chemically synthesized peptide derived from the ITIH5 vWA domain (YFAPKDLPPLPKNVVFVLDS; isolated peptide)
[1]
  cancer cell growth, single peptides: significant impairment of cancer cell growth

## #108: chemically synthesized peptide derived from the ITIH5 vWA domain (DSSASMVGTKLRQTKDALFT; isolated peptide)
[1]
  cancer cell growth, single peptides: significant impairment of cancer cell growth

## #111: chemically synthesized peptide derived from the ITIH5 vWA domain (KLRQTKDALFTILHDLRPQD; isolated peptide)
[1]
  cancer cell growth, single peptides: significant impairment of cancer cell growth

B1: 1-681_ITIH5: recombinant isolated polypeptide, amino acids 1-681 of the full-length ITIH5 protein (942 amino acids) (protein)
chain: MLLLLGLCLGLSLCVGSQEEAQSWGHSSEQDGLRVPRQVRLLQRLKTKPLMTEFSVKSTIISRYAFTTVSCRMLNRASEDQDIEFQMQIPAAAFITNFTMLIGDKVYQGEITEREKKSGDRVKEKRNKTTEENGEKGTEIFRASAVIPSKDKAAFFLSYEELLQRRLGKYEHSISVRPQQLSGRLSVDVNILESAGIASLEVLPLHNSRQRGSGRGEDDSGPPPSTVINQNETFANIIFKPTVVQQARIAQNGILGDFIIRYDVNREQSIGDIQVLNGYFVHYFAPKDLPPLPKNVVFVLDSSASMVGTKLRQTKDALFTILHDLRPQDRFSIIGFSNRIKVWKDHLISVTPDSIRDGKVYIHHMSPTGGTDINGALQRAIRLLNKYVAHSGIGDRSVSLIVFLTDGKPTVGETHTLKILNNTREAARGQVCIFTIGIGNDVDFRLLEKLSLENCGLTRRVHEEEDAGSQLIGFYDEIRTPLLSDIRIDYPPSSVVQATKTLFPNYFNGSEIIIAGKLVDRKLDHLHVEVTASNSKKFIILKTDVPVRPQKAGKDVTGSPRPGGDGEGDPNHIERLWSYLTTKELLSSWLQSDDEPEKERLRQRAQALAVSYRFLTPFTSMKLRGPVPRMDGLEEAHGMSAAMGPEPVVQSVRGAGTQPGPLLKKPYQPRIKISKTSVDGD
modifications: polypeptide 1-681_ ITIH5
[2]
  cell growth inhibition (XTT): strongly mediates cell growth inhibition
[3]
  growth inhibition in ITIH5-positive cells: not able to mediate growth inhibition
[4]
  unspecific cytotoxicity (LDH): no unspecific cytotoxicity
[5]; 100 ng/ml medium, repeated experiments
  Growth inhibition: up to 20%
[5]; 1 μg/ml medium, highly significant
  Growth inhibition: up to 50%
[6]
  tumor cell migration / cell motility: impairs furthermore tumor cell migration
[7]
  stability in the supernatant of treated cancer cells: ≥ 48 h
[8]
  colony growth: significantly reduced colony growth
[9]
  colony growth: significantly reduced colony growth
[10]
  colony growth after 14 days in culture (densitometrical evaluation): significantly impairs colony growth

B2: 1-162_VIT: isolated recombinant polypeptide comprising only the VIT domain of ITIH5, amino acid 1 to 162 (protein)
chain: MLLLLGLCLGLSLCVGSQEEAQSWGHSSEQDGLRVPRQVRLLQRLKTKPLMTEFSVKSTIISRYAFTTVSCRMLNRASEDQDIEFQMQIPAAAFITNFTMLIGDKVYQGEITEREKKSGDRVKEKRNKTTEENGEKGTEIFRASAVIPSKDKAAFFLSYEE
modifications: VIT- domain of the inter-alpha-trypsin inhibitor heavy chain
[4]
  unspecific cytotoxicity (LDH): no unspecific cytotoxicity
[5]
  inhibition of tumor cell growth: up to 40%
[6]
  tumor cell migration / cell motility: clearly suppresses cell motility
[11]
  unspecific cytotoxicity (LDH): no unspecific cytotoxicity
[12]
  inhibition of tumor cell growth: up to 40%

B3: 213_vWA: isolated recombinant polypeptide comprising only the vWA domain of ITIH5, 213 amino acids (protein)
chain: GYFVHYFAPKDLPPLPKNVVFVLDSSASMVGTKLRQTKDALFTILHDLRPQDRFSIIGFSNRIKVWKDHLISVTPDSIRDGKVYIHHMSPTGGTDINGALQRAIRLLNKYVAHSGIGDRSVSLIVFLTDGKPTVGETHTLKILNNTREAARGQVCIFTIGIGNDVDFRLLEKLSLENCGLTRRVHEEEDAGSQLIGFYDEIRTPLLSDIRIDY
modifications: “vWA” domain of the inter-alpha-trypsin inhibitor heavy chain
[5]
  inhibition of tumor cell growth: up to 30%

Source: patent US10457718B2, “Compounds for the treatment of cancer” (Rheinisch-Westfaelische Technische Hochschule Aachen, priority 2015, dated 2019)
